US20110190477A1 (G2 INFLAMMATION, published 2011)
No end group written: not given here. *: point of attachment. Biotin = O=C1N[C@H]2[C@H](CS[C@H]2CCCCC(=O)*)N1

T1: human C5a receptor (human, UniProt P21730 1-350)
T1 construct: On human neutrophils, L1.2/hC5aR transfectants or neutrophils of hC5aR knock-in mice; also called hC5aR; C5aR1
T1 chain: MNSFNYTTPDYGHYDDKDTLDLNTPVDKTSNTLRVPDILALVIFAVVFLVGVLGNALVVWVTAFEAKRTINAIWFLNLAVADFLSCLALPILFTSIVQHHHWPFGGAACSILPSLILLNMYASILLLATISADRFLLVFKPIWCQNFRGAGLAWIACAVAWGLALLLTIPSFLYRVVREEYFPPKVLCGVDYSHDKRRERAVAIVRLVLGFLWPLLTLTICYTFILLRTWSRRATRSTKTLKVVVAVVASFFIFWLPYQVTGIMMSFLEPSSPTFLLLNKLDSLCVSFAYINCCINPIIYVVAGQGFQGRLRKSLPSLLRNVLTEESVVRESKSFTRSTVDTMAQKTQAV

T2: peptide 19 (12 mer from the 2nd extracellular loop of human C5aR) (human)
T2 construct: worked out from 22 12 mers offset by one over 173-205; also called peptide no; 19
T2 peptide: Biotin-SGSGDYSHDKRRERAV

T3: peptide 14 (12 mer from the 2nd extracellular loop of human C5aR) (human)
T3 construct: worked out from 22 12 mers offset by one over 173-205; also called peptide no; 14
T3 peptide: Biotin-SGSGVLCGVDYSHDKR

T4: peptide 16 (12 mer from the 2nd extracellular loop of human C5aR) (human)
T4 construct: worked out from 22 12 mers offset by one over 173-205; also called peptide no; 16
T4 peptide: Biotin-SGSGCGVDYSHDKRRE

T5: peptide 15 (12 mer from the 2nd extracellular loop of human C5aR) (human)
T5 construct: worked out from 22 12 mers offset by one over 173-205; also called peptide no; 15
T5 peptide: Biotin-SGSGLCGVDYSHDKRR

T6: peptide 10 (12 mer from the 2nd extracellular loop of human C5aR) (human)
T6 construct: worked out from 22 12 mers offset by one over 173-205; also called peptide no; 10
T6 peptide: Biotin-SGSGFPPKVLCGVDYS

T7: peptide 20 (12 mer from the 2nd extracellular loop of human C5aR) (human)
T7 construct: worked out from 22 12 mers offset by one over 173-205; also called peptide no; 20
T7 peptide: Biotin-SGSGYSHDKRRERAVA

T8: peptide 13 (12 mer from the 2nd extracellular loop of human C5aR) (human)
T8 construct: worked out from 22 12 mers offset by one over 173-205; also called peptide no; 13
T8 peptide: Biotin-SGSGKVLCGVDYSHDK

B1: humanized anti-C5aR antibody hAb-J (antibody, human IgG4 S228P, kappa)
light: DVVMTQSPLSLPVTLGEPASISCRSSQSLVHSNGNTYLHWYLQKPGQSPQLLIYKVSNRFSGVPDRFSGSGSGTDFTLKISRVEAEDVGVYFCSQSTLVPLTFGQGTKLEIKTVAAPSVFIFPPSDEQLKSGTASVVCLLNNFYPREAKVQWKVDNALQSGNSQESVTEQDSKDSTYSLSSTLTLSKADYEKHKVYACEVTHQGLSSPVTKSFNRGEC
heavy: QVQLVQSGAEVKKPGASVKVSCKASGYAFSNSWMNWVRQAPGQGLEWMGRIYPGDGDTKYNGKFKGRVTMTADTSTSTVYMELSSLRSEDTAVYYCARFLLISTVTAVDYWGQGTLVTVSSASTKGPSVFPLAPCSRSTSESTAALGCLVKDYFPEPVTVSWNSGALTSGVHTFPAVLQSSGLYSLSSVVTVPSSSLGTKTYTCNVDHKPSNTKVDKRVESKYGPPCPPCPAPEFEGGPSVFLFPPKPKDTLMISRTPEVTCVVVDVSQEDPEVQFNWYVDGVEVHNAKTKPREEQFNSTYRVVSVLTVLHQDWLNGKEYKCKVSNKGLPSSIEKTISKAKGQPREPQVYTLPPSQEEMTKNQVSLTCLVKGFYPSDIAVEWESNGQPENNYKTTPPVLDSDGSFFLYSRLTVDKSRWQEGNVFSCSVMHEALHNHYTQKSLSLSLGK
notes: also called antibody J
B2: humanized anti-C5aR antibody hAb-Q (antibody, human IgG4 S228P, kappa)
light: DVVMTQSPLSLPVTLGEPASISCRSSQSLVHSNGNTYLHWYLQKPGQSPQLLIYKVSNRFSGVPDRFSGSGSGTDFTLKISRVEAEDVGVYFCSQSTLVPLTFGQGTKLEIKRTVAAPSVFIFPPSDEQLKSGTASVVCLLNNFYPREAKVQWKVDNALQSGNSQESVTEQDSKDSTYSLSSTLTLSKADYEKHKVYACEVTHQGLSSPVTKSFNRGEC
heavy: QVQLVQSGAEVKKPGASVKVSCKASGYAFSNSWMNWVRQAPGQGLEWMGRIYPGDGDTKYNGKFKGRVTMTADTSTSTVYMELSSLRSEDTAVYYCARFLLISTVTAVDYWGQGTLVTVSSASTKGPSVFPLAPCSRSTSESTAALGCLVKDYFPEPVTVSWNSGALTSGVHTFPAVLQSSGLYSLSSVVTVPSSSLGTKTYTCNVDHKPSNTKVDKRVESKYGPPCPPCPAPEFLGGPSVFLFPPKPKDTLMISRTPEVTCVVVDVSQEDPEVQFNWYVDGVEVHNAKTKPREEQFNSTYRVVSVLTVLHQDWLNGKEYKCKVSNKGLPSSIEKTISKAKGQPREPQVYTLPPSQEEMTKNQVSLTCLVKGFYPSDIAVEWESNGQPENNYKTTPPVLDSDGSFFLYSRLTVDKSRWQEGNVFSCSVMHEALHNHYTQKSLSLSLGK
notes: IgG4 with the Ser228Pro mutation; also called antibody Q; anti-C5aR ab
B3: mouse anti-C5aR monoclonal antibody 7F3 (antibody, V domains shown)
VH: QVQLQQSGPELVKPGASVKISCKASGYAFSNSWMNWVKQRPGKGLEWIGRIYPGDGDTKYNGKFKGKATLTADKSSSTAYMQLSSLTSEDSAVYFCARFLLISTVTAVDYWGQGTTLTVSS
VL: DVVMTQSPLSLPVSLGNQASISCRSSQSLVHSNGNTYLHWYLQKPGQSPKLLIYKVSNRFSGVPDRFSGSGSGTDFSLKISRVEAEDLGVYFCSQSTLVPLTFGAGTKLELK
notes: Mouse monoclonal from hybridoma ECACC 00110609; also called m7F3; mouse 7F3

Target: T1, human C5a receptor
Assay: 125I-C5a displacement, human neutrophils
Description: The ability of humanized Abs to inhibit ¹²⁵I-labelled C5a binding to L1.2 cells transfected with hC5aR gene or human neutrophils was tested as described below. Recombinant human C5a was obtained from Sigma Chemical Co. (St. Louis, Mo.). ¹²⁵I-Bolton-Hunter-labelled complement C5a was purchased from NEN-Dupont (Boston, Mass.), with a specific activity of 2200 Ci/mM. Briefly, L1.2/hC5aR stable transfectants were grown for several days prior to an experiment then treated overnight with 5 mM butyric acid to stimulate hC5aR expression prior to the binding assay. Human neutrophils were purified from venous blood collected from healthy volunteers. Neutrophils were separated from other leukocytes by percoll density centrifugation followed by a red blood cell lysis step. Both cell types were washed once in PBS and resuspended in binding buffer (50 mM Hepes, pH 7.5, 1 mM CaCl₂, 5 mM MgCl₂, 0.5% BSA) at a concentration of 1×10⁷/ml. Aliquots of 40 μl (4×10⁵ cells) were dispensed into 96 well microtitre plates, followed by the addition of cold competitor (antibody or human C5a). Cells and cold competitor were incubated for 15 min at room temperature before-radiolabelled C5a was added to a final concentration of 0.4 nM. The final reaction volume was 120 μl. After 60 min incubation at room temperature, the cells were washed three times with 150 μl of binding buffer containing 0.15 M NaCl. Cell pellets were then counted on a TopCount Scintillation Counter (Packard). Samples were assayed in triplicate at each of 6-8 concentrations. Each antibody was tested in at least 3 separate assays. The number of counts in each sample was expressed as a percentage of the maximum ¹²⁵I-C5a binding observed in wells with no added cold competitor after subtraction of background.
Results of this analysis (the displacement curves) for each of the humanized antibodies compared to the mouse antibody 7F3 in human neutrophils and L1.2/hC5aR transfectants are given in FIGS. 11 and 12 respectively. […] These values were obtained using Graphpad Prism software fitting the data to the non-linear equation for one site competition.

Row | Binder | EC50 [nM]
1 | B1 | 4.11
2 | B2 | 3.5
3 | B3 | 0.54

Target: T2, peptide 19 (12 mer from the 2nd …)
Assay: peptide ELISA, biotin peptide on streptavidin plate
From the text: (§1) A set of 22 overlapping peptides (12 mers), each offset by 1 residue from the next, spanning the second extracellular loop (3rd extracellular domain) of human C5aR was synthesised (Mimotopes, Melbourne). Each peptide was made with a biotin group and 4-amino acid linker (SGSG) at its N-terminus. One peptide synthesised, no. 23, was a 33 mer, representing the full length of the 2nd extracellular loop of hC5aR (residues 173-205 from SEQ ID NO:37), also had biotin-SGSG at the N-terminus.
(§2) The experiment was conducted by binding the peptides to a 384-well streptavidin-coated plate then incubating the antibodies with the peptides and detecting bound antibody with an anti-mouse IgG conjugated to horse radish peroxidase (HRP) as follows. Each peptide was dissolved in 200 μl of 60% DMSO to a concentration of 10 mg/ml. Peptides were further diluted 1:1000 to a working strength of 10 μg/ml with PBS/Tween 20/azide solution (0.1% w/v sodium azide in PBS/0.05% Tween 20).
(§3) A 384 well streptavidin-coated plate (Nunc) was blocked with 20 μl of blocking buffer (1% w/v BSA in PBS) per well. The plate was washed 4 times with PBS/Tween20 buffer (0.1% v/v Tween 20 in PBS). 20 μl of diluted peptide solution was transferred into a well and the plate incubated for 1 hour at room temperature. After washing the plate 4 times (as above) 20 μl antibody (0.5, 1, 1.25, 2.5 or 5 μg/ml) was added to the well and the plate was incubated for 1 hour at 20° C. The plate was washed 4 times as above then 20 μlHRP-conjugated anti-mouse IgG (1:5000 dilution in PBS/Tween 20) was added to each well. After a 1 hour incubation at room temperature the plate was washed 3 times (as above) then twice with PBS to remove traces of Tween. The presence of peroxidase was detected by adding 20 μl of freshly prepared TMB Substrate reagent (BD Opt EIA) to each well and incubating at room temperature for 20 min. Finally the plate was read at 650 nm/450 nm.

Row | Binder | binding result
4 | B1 | no binding
5 | B2 | no binding
6 | B3 | no binding

Target: T3, peptide 14 (12 mer from the 2nd …)
Assay: as above
From the text: as §1, §2, §3

Row | Binder | binding result
7 | B1 | no binding
8 | B2 | no binding
9 | B3 | no binding

Target: T4, peptide 16 (12 mer from the 2nd …)
Assay: as above
From the text: as §1, §2, §3

Row | Binder | binding result
10 | B1 | no binding
11 | B2 | no binding
12 | B3 | no binding

Target: T5, peptide 15 (12 mer from the 2nd …)
Assay: as above
From the text: as §1, §2, §3

Row | Binder | binding result
13 | B1 | no binding
14 | B2 | no binding
15 | B3 | no binding

Target: T6, peptide 10 (12 mer from the 2nd …)
Assay: as above
From the text: as §1, §2, §3

Row | Binder | binding result
16 | B1 | no binding
17 | B2 | no binding
18 | B3 | no binding

Target: T7, peptide 20 (12 mer from the 2nd …)
Assay: as above
From the text: as §1, §2, §3

Row | Binder | binding result
19 | B1 | no binding
20 | B2 | no binding
21 | B3 | no binding

Target: T8, peptide 13 (12 mer from the 2nd …)
Assay: as above
From the text: as §1, §2, §3

Row | Binder | binding result
22 | B1 | no binding
23 | B2 | no binding
24 | B3 | no binding
